The target in assay [1] is T1, human TIGIT (human, UniProt Q495A1 22-244).
T1 construct: Cell-surface form; also called huTIGIT
T1 sequence: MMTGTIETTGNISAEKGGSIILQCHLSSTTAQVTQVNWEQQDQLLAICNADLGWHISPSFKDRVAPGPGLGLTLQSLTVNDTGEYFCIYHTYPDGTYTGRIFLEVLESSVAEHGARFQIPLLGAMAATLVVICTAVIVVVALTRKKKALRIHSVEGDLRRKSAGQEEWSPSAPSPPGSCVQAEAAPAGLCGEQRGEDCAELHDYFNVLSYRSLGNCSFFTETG
In words: flow cytometry on CHO-S cells expressing human TIGIT, competitor CD112-Fc-Alexa 647, at 1 ug/mL. (Flow cytometry measures light scatter and fluorescence of single cells or particles in a stream.)
Procedure: (§1) TIGIT-binding hybridoma supernatants were then tested for their ability to block TIGIT from binding ligand. […] The 7-AAD cell viability stain was then added and the cells incubated for a further 15 minutes at 4° C., washed twice and resuspended in FACS buffer. Samples were analyzed using a BD Accuri™ Flow Cytometer and an Intellicyt HyperCyt autoSampler.

Assay [2] deals with T1, human TIGIT. Put plainly: cell-based or functional assay.
The target in assay [3] is T1, human TIGIT. In words: cell-based or functional assay. The source holds these as a separate data set.
Another assay has as its target T2, huTIGIT (PL44403) (human, UniProt Q495A1 22-141).
T2 construct: Soluble protein; also called Human TIGIT (Octet analyte, mono-Fc tag)
T2 sequence: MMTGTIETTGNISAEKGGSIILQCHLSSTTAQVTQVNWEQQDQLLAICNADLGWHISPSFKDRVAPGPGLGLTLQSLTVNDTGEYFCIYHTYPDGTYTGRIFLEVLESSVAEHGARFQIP
Put plainly: Octet, antibody on anti-huIgG Fc capture tips, huTIGIT as analyte.

Assay [4] deals with T1, human TIGIT. Put plainly: flow cytometry, 1 µg/mL on activated primary human T cells, fold over isotype control.
Procedure: (§2) The binding of hybridoma supernatants to TIGIT expressed by primary human and cynomolgus monkey cells were tested by flow cytometry. For human primary cell binding assay, purified human T cells (Biological Specialty Corp.) were thawed and suspended at a concentration of 2.5×10⁶ cells/mL. […] After 72 hours, cells were removed, washed and suspended at a concentration of 0.5×10⁶ cells/mL with 10 ng/mL of IL-2 (Pepro Tech). Cells were then incubated for another 48 to 72 hours at 37° C./5% CO₂. For cynomolgus primary cell binding assay, cynomolgus PBMCs (SNBL) were thawed and suspended in a concentration between 4×10⁶ and 5×10⁶ cells/mL. […] After 72 hours, cells were removed, washed and suspended at a concentration of 0.5×10E6 cells/mL with 20 ng/mL of IL-2 (Pepro Tech). Cells were then incubated for another 48 to 72 hours at 37° C./5% CO₂. After the final incubation, cells were prepared for flow cytometry by incubation with normalized hybridoma supernatants, positive control antibodies and isotype control antibodies at 1 μg/mL final concentration. […] Cells were then run on BD FACSCanto II flow cytometer to detect anti-TIGIT antibody binding.
The next assay deals with T3, cynoTIGIT (PL40461) (cynomolgus monkey).
T3 construct: Soluble protein; also called Cyno TIGIT (Octet analyte)
Put plainly: Octet, antibody on anti-huIgG Fc capture tips, cynoTIGIT as analyte. In general terms: BLI is a label-free optical method that tracks binding on a fibre tip over time.

Assay [5] addresses T4, cynomolgus TIGIT (cynomolgus monkey).
T4 construct: Cell-surface form; also called cyno TIGIT
In words: flow cytometry, 1 µg/mL on activated primary cyno PBMCs, fold over isotype control.
Procedure: as §2

Assay [6] has as its target T1, human TIGIT. In words: flow cytometry on CHO-S cells expressing human TIGIT, competitor huCD155-Fc-Alexa 647, at 1.7 µg/mL.
Procedure: as §1
Assay [7] deals with T4, cynomolgus TIGIT. Put plainly: flow cytometry on activated primary cyno PBMCs, fold over isotype control.
Procedure: as §2
In the next assay the target is T5, human CD155 on cells (human, UniProt P15151 21-417).
T5 construct: whole, on cells; also called huCD155
T5 sequence (looked up): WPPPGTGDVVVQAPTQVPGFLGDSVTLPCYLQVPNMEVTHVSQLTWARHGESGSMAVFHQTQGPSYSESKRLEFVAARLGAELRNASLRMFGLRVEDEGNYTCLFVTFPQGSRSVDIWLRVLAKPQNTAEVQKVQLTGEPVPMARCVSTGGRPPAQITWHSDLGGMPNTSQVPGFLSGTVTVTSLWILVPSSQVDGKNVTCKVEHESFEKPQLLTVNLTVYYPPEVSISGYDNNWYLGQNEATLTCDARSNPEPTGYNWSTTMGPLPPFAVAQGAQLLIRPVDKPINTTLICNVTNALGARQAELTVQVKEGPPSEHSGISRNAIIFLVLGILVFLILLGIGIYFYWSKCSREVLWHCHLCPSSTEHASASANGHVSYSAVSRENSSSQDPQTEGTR
Put plainly: flow cytometry, CD226-Fc at 10 ug/mL on mock-transfected 293T cells.

Assay [8] deals with T6, human CD112R expressed on CHO K1 cells (pMSCV_FLAG_human CD112R (N81D)(41-326)_IRES_EGFP) (human, UniProt Q6DKI7 41-326).
T6 construct: also called huCD112R; human CD112R expressed on CHO cells; not shown: FLAG tag named in the vector
T6 sequence: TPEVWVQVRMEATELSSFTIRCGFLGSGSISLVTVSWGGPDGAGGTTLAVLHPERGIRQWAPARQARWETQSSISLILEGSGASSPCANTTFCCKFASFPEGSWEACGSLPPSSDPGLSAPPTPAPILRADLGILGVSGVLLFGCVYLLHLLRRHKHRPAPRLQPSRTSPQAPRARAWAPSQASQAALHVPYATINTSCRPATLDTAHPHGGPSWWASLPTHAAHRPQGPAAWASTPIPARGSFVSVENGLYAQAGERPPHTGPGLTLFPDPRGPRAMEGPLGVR
In words: flow cytometry on CHO K1 cells expressing human CD112R.

Residue numbers refer to the chain shown, from its start. Values joined by “and” are separate entries in the source; they are usually repeats but may differ in a detail not shown here. Equal values may be shown once.

T4 sequence (chain, as listed by the source): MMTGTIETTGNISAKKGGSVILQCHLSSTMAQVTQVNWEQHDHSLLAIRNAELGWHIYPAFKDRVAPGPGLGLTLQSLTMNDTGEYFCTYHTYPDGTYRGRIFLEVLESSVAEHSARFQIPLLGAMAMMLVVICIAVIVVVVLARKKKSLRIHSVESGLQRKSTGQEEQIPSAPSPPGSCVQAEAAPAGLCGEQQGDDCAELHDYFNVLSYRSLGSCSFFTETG
T3 sequence (chain, as listed by the source limits assumed): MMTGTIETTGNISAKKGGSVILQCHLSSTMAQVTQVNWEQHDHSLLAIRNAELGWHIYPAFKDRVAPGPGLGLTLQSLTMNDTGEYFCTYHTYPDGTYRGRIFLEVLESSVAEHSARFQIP
Procedure for cynoTIGIT (PL40461): (§3) In the case of cynoTIGIT, association was monitored for 5 min and dissociation for 5 min. […] The limit of detection of dissociation is 4e-5 based on a minimum of 5% dissociation over 20 minutes.
Procedure for huTIGIT (PL44403): as §3
Procedure for human CD155 on cells: In the presence of tool TIGIT antibodies, TIGIT expressed by TIGIT-293 cells is bound by tool antibodies and is blocked from binding to CD155, thereby allowing CD226 to interact with CD155. […] Cells were washed 1× with FACS Buffer and resuspended in FACS buffer. Samples were analyzed using a BD Accuri™ Flow Cytometer and an Intellicyt HyperCyt autoSampler.

B1: 43B7 (antibody, V domains shown)
VH: QVQLQESGPGLVKPSQTLSLTCTVSGGSISSGGYYWSWIRQHPGKGLEWIGYIYYRGGTYYNPSLRSRVTMSVDTSKNQFSLMLSSVTAADTAVYYCARTIFGVIILDNWGQGTPVTVSS
VL: DIQMTQSPSSLSASVGDRVTITCRSSQSISSYLNWYQQKPGRAPKLLIHAASSLQSGVPSRFSGSGSGTDFTLTISSLQPEDFASYCCQQSYTTPPTFGGGTKVEIKR
notes: Fully human XenoMouse antibody, tested as hybridoma supernatant or purified mAb
B1: the “% inhibition” value with human TIGIT [1] and with human TIGIT [6] was 100% in each case. Besides, in the assay with human TIGIT [2], the “activity in the primary CD8 memory T-cell assay (IFN-γ release, CHO-K1-CD155+ cells)” value worked out at 90 pM. Also, in the assay with human TIGIT [3], the “Potency [nM], Jurkat human TIGIT/IL-2-luciferase RGA, n = 1” value (from here on “Potency [nM] … n = 1”) came out at 3.4 nM. In addition, the “Potency [nM], Jurkat human TIGIT/IL-2-luciferase RGA, n = 2” value (shortened to “Potency [nM] … n = 2”) with human TIGIT [3] is 2.5 nM. Besides, the dissociation constant Kd (commonly the constant that tells how readily two partners part at equilibrium) in the assay with huTIGIT (PL44403) was below 0.1 nM; with cynoTIGIT (PL40461) it was 13 nM. Further, the “FACS Geomean Fold” value with human TIGIT [4] amounted to 13.7 fold; with cynomolgus TIGIT [5], 4.7 fold.

B2: 11A3 (antibody, V domains shown)
VH: QVQLVQSGAEVKKPGASVKVSCKASGYTFTSYYIHWVRQAPGQGLEWMGIINPSGGRTSYAQMFQGRVTLTRDTSTNTVYMELSSLRSEDTAVFYCAKDREEQWPVGGFDYWGQGTLVTVSS
VL: DIQMTQSPSSLSASVGDRVTITCRASQNIRRYLNWYQQKPGKAPELLIYSASNLQNGVPSRFSGSGSGTDFTLTISSLQPEDFATYYCQQSYIIPPTFGQGTKVEIRR
notes: as for B1
With B2, the “% inhibition” value with human TIGIT [1] and in the assay with human TIGIT [6] was 100% in each case. For the same molecule, the binding result in the assay with cynomolgus TIGIT [7] is “no binding (tested: 1 µg/mL)”; with cynoTIGIT (PL40461), “no binding”. The “Potency [nM] … n = 1” value in the assay with human TIGIT [3] came to 1.9 nM. Further, the “Potency [nM] … n = 2” value in the assay with human TIGIT [3] was found to be 2.7 nM. For the same molecule, in the assay with huTIGIT (PL44403), the Kd was below 0.1 nM. In the assay with human TIGIT [4], the “FACS Geomean Fold” value was determined as 11.6 fold.

B3: 28B8 (antibody, V domains shown)
VH: QVQLQESGPGLVKPSETLFLTCTVSGGSVTNYYWSWIRQPAGKGLEWIGRIYTSGSTYYNPSLKSRVTMSLDTSKNQFSLRLSSVTAADTAVYYCAREGFTMVRGVMGAFDIWGQGTMVTVSS
VL: B2 VL with N28S, K39I, E45K, L46F, S50D, N53S, N56S, I93S, I94T, R107K
notes: as for B1
Regarding B3, the % inhibition – broadly, the drop in the measured response relative to a control, in per cent – came to 97% with human TIGIT [1] and 100% with human TIGIT [6]. Also, in the assay with human TIGIT [2], the “activity in the primary CD8 memory T-cell assay (IFN-γ release, CHO-K1-CD155+ cells)” value is 160 pM. Further, the binding result in the assay with cynomolgus TIGIT [7] is on record as “no binding (tested: 1 µg/mL)”; in the assay with cynoTIGIT (PL40461), “no binding”. Further, in the assay with human TIGIT [3], the “Potency [nM] … n = 1” value was 4.3 nM. Besides, the “Potency [nM] … n = 2” value in the assay with human TIGIT [3] came to 2.1 nM. In the assay with huTIGIT (PL44403), this molecule registered a Kd below 0.1 nM. Moreover, the “FACS Geomean Fold” value with human TIGIT [4] came to 14.4 fold.

B4: human CD226-Fc (Fc fusion, UniProt Q15762 19-247, looked up, not shown: a dimerising Fc or GST)
chain: EEVLWHTSVPFAENMSLECVYPSMGILTQVEWFKIGTQQDSIAIFSPTHGMVIRKPYAERVYFLNSTMASNNMTLFFRNASEDDVGYYSCSLYTYPQGTWQKVIQVVQSDSFEAAVPSNSHIVSEPGKNVTLTCQPQMTWPVQAVRWEKIQPRQIDLLTYCNLVHGRNFTSKFPRQIVSNCSHGRWSVIVIPDVTVSDSGLYRCYLQASAGENETFVMRLTVAEGKTDN
notes: also called huCD226; CD226-Fc (R&D, 666-DN)
With B4, in the assay with human CD155 on cells, the binding result is recorded as “binds”.

B5: human CD112-Fc (Fc fusion, UniProt Q92692 32-360, looked up, not shown: a dimerising Fc or GST)
chain: QDVRVQVLPEVRGQLGGTVELPCHLLPPVPGLYISLVTWQRPDAPANHQNVAAFHPKMGPSFPSPKPGSERLSFVSAKQSTGQDTEAELQDATLALHGLTVEDEGNYTCEFATFPKGSVRGMTWLRVIAKPKNQAEAQKVTFSQDPTTVALCISKEGRPPARISWLSSLDWEAKETQVSGTLAGTVTVTSRFTLVPSGRADGVTVTCKVEHESFEEPALIPVTLSVRYPPEVSISGYDDNWYLGRTDATLSCDVRSNPEPTGYDWSTTSGTFPTSAVAQGSQLVIHAVDSLFNTTFVCTVTNAVGMGRAEQVIFVRETPNTAGAGATGG
notes: treated as the same reagent; also called Human CD112 Ligand; CD112 ligand
On to B5, for which the half-maximal effective concentration (EC50) (as a rule, the midpoint of the concentration-response curve) in assay [8] is 1.61 µg/mL and 12.8 nM.

For the origin of these results see US20220017616A1 (Amgen, published 2022).
